In series [1] the target is mCherry fusion hnRNPA2 LC domain (UniProt P22626-2 181-341). Kind of series: hydrogel binding assay.
The series “AUC” concerns the molecule itself. As to the kind of experiment: AUC.
Series [2] addresses T1, mCherry fusion FUS LC domain (UniProt P35637 2-214).
T1 sequence (looked up): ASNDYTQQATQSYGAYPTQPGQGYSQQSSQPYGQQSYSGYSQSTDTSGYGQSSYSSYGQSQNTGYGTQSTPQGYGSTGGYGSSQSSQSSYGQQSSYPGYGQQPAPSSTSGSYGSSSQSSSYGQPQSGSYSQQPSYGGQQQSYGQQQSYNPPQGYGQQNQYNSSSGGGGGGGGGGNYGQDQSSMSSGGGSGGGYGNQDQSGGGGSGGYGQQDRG
As to the kind of experiment: hydrogel binding assay.

In series [3] the target is mCherry fusion TDP43 LC domain (UniProt Q13148 262-414). Kind of series: hydrogel binding assay.
mCherry fusion TDP43 LC domain, sequence (Q13148 262-414): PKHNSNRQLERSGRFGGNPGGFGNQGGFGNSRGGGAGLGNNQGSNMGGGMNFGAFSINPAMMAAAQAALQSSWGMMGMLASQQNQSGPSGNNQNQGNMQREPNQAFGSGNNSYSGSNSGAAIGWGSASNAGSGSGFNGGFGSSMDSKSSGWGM

Where “and” joins values, the source holds several entries; their conditions need not be identical. Equal entries are not always repeated.

A word on the stoichiometry N: it is a count of units in the complex or per binding partner.

B1: GFP:ZEB2-ZnF6 (domain or fragment, UniProt O60315 999-1021, looked up)
chain: YACDLCDKTFQKSSSLLRHKYEH
Regarding B1, the binding result in series [1] was “binds”.

B2: GFP:ZEB2-ZnF7-8 (domain or fragment, UniProt O60315 1027-1076, looked up)
chain: HQCQICKKAFKHKHHLIEHSRLHSGEKPYQCDKCGKRFSHSGSYSQHMNH
In the case of B2, in series [1], the binding result is recorded as “binds”.

B3: GFP:ZEB2-ZnF6-7 (domain or fragment, UniProt O60315 999-1049, looked up)
chain: YACDLCDKTFQKSSSLLRHKYEHTGKRPHQCQICKKAFKHKHHLIEHSRLH
As to B3, the binding result in series [1] is “binds”.

B4: GFP-fused ZnFs of KLF4 (domain or fragment)
chain: not shown
On to B4, for which the binding result in series [1] is recorded as “binds”.

B5: GFP:ZEB2-ZnF5 (domain or fragment, UniProt O60315 581-605, looked up)
chain: FSCQFCKESFPGPIPLHQHERYLCK
Consider B5, for which the binding result in series [1] was “binds”.

B6: GFP:ZEB2-ZnF1-4 (domain or fragment, UniProt O60315 211-334, looked up)
chain: LTCPYCDRGYKRLTSLKEHIKYRHEKNEENFSCPLCSYTFAYRTQLERHMVTHKPGTDQHQMLTQGAGNRKFKCTECGKAFKYKHHLKEHLRIHSGEKPYECPNCKKRFSHSGSYSSHISSKKC
Turning to B6, in series [1], the binding result is “binds”.

B7: mCherry fusion hnRNPA2 LC domain F291S mutant (domain or fragment, UniProt P22626-2 181-341, looked up)
chain: MQEVQSSRSGRGGNFGFGDSRGGGGNFGPGPGSNFRGGSDGYGSGRGFGDGYNGYGGGPGGGNFGGSPGYGGGRGGYGGGGPGYGNQGGGYGGGYDNYGGGNYGSGNYNDSGNYNQQPSNYGPMKSGNFGGSRNMGGPYGGGNYGPGGSGGSGGYGGRSRY
B7: in “AUC”, the “stoichiometry N” value is 2 and 3.

B8: GFP:ZEB2-ZnF8 (domain or fragment, UniProt O60315 1055-1076, looked up)
chain: YQCDKCGKRFSHSGSYSQHMNH
Consider B8, for which the binding result in series [1] is on record as “binds”.

B9: GFP:ZEB2-ZnF7 (domain or fragment, UniProt O60315 1027-1049, looked up)
chain: HQCQICKKAFKHKHHLIEHSRLH
For the molecule B9, the binding result in series [1] is on record as “binds”.

B10: GFP:ZEB1-ZnF5-7 (domain or fragment, UniProt P37275 904-981, looked up)
chain: YACDLCDKIFQKSSSLLRHKYEHTGKRPHECGICKKAFKHKHHLIEHMRLHSGEKPYQCDKCGKRFSHSGSYSQHMNH
In the case of B10, the binding result in series [1] is “binds”.

B11: GFP fusion ZEB2 ZnF6-8 (domain or fragment, UniProt O60315 999-1076, looked up)
chain: YACDLCDKTFQKSSSLLRHKYEHTGKRPHQCQICKKAFKHKHHLIEHSRLHSGEKPYQCDKCGKRFSHSGSYSQHMNH
With B11, the binding result in series [2], in series [1] and in series [3] was “binds” throughout.

B12: GFP:ZNF512B ZnF3-5 (domain or fragment, UniProt Q96KM6 540-653, looked up)
chain: LKCQHCRKQFKSKAGLNYHTMAEHSAKPSDAEASEGGEQEERERLRKVLKQMGRLRCPQEGCGAAFSSLMGYQYHQRRCGKPPCEVDSPSFPCTHCGKTYRSKAGHDYHVRSEH
In the case of B12, the binding result in series [1] is listed as “binds”.

These data come from publication PMC12531337 (Nature Communications, 2023).
